Data on four molecules can be found in patent US6218600A, “Structure and expression of the biotin carboxylase subunit of heteromeric acetyl-CoA carboxylase” (Board of Trustees Operating Michigan State University, priority 1996, dated 2001).

In one series the test system is Castor Endosperm ACCase. The series is described as follows: ACCase activity assay, castor endosperm extract, with metabolites of fatty acid synthesis. The series is classed as biochemical, castor (Ricinus Communis L.). The settings on record: mean of duplicate determinations ± standard deviation, 15 min.
The next series concerns Pea Chloroplast ACCase. Kind of series: ACCase activity assay, pea chloroplast enzyme partially purified by gel permeation, with metabolites of fatty acid synthesis. The series is classed as biochemical, pea (Pisum sativum). The settings on record: mean of duplicate determinations ± standard deviation, 15 min.

Take `CCCCCCCCCCCCCCCC(=O)O` [16:0, reference compound]: the “Castor ACCase Activity (% of Control)” value with Castor Endosperm ACCase (10 μM addition) was 97 ± 8 % of Control.
On the same count and under the same terms, in the case of `CCCCCCCC/C=C\CCCCCCCC(=O)O` [18:1, Oleic acid, reference compound] it was 72 ± 10 % of Control.

B1: 16:0-ACP: long-chain acyl-ACP synthesized from radioactive 16:0 fatty acid and recombinant spinach ACP-I (conjugate, UniProt P07854 57-138, looked up)
Acyl carrier protein 1, …: AKKETIDKVCDIVKEKLALGADVVVTADSEFSKLGADSLDTVEIVMNLEEEFGINVDEDKAQDISTIQQAADVIESLLEKKA
modifications: radiolabeled palmitoyl (16:0) acyl thioester
Take B1: the figures for the “Pea ACCase Activity (% of control)” value in the series on Pea Chloroplast ACCase (1 μM addition), in the series with Pea Chloroplast ACCase (3 μM addition) and with Pea Chloroplast ACCase (10 μM addition) were 98 ± 2 % of control, 91 ± 4 % of control and 77 ± 4 % of control, respectively. Also, the “Castor ACCase Activity (% of Control)” value in the series with Castor Endosperm ACCase (10 μM addition) is 75 ± 3 % of Control.

B2: 18:1-ACP: long-chain acyl-ACP synthesized from radioactive 18:1 fatty acid and recombinant spinach ACP-I (conjugate, UniProt P07854 57-138, looked up)
Acyl carrier protein 1, …: B1 Acyl carrier protein 1, …
modifications: radiolabeled oleoyl (18:1) acyl thioester
Consider B2, for which the “Pea ACCase Activity (% of control)” value in the series with Pea Chloroplast ACCase (1 μM addition) is recorded as 97 ± 1 % of control; in the series with Pea Chloroplast ACCase (3 μM addition) it was 87 ± 3 % of control; in the series with Pea Chloroplast ACCase (10 μM addition), 79 ± 14 % of control. The “Castor ACCase Activity (% of Control)” value is listed as 81 ± 9 % of Control in the series with Castor Endosperm ACCase (5 μM addition) and 63 ± 11 % of Control in the series on Castor Endosperm ACCase (10 μM addition).
